Assay results published in the RNAGym collection of RNA variant scans (doi:10.7554/elife.90254).

B1: LINE1-full (parent)
chain: UACGUAGGUGGUUUUCCCCUGAUAGUGCUAAGGGGGCCUGGAAGUUUGGACUGGGCAGAGCUCAACACAGCGUGGCAAAGUGGCUGUGGCUAGACUGCCUCUCUGGAUUCCUCGUCACUCAGCAGGGCAUCUCUGAGAGAAAUGCC

Variants of: B1
Experiment: self-cleavage, relative activity (ratio to wild type); higher = more cleavage; in vitro, sequencing; the parent is a self-cleaving ribozyme

Row | Variant | self-cleavage
1 | UACGUAGGUGGUUUUCCCCUGAUAGUGCUGAGGGGGCCUGGAAGUUUGGACUGGGCAGAGCUCAACACAGCGUGGCAAAGUGGCUGUGGCUAGACUGCCUCUCUGGAUUCCUCGUCACUCAGCAUGGCAUCUCUGAGAGAAAUGCC [A30G G125U] | 1.47
2 | UACGUAGGUGGUUUUCCCCUGAUAGUGCUAAGGGGGCCUGGAGGUUUGGCCUGGGCAGAGCUCAACACAGCGUGGCAAAGUGGCUGUGGCUAGACUGCCUCUCUGGAUUCCUCGUCACUCAGCAGGGCAUCUCUGAGAGAAAUGCC [A43G A50C] | 1.73
3 | UACGUAGGUGGUUUUCCCCUGAUAGUGCUAAGGGGGCCUGGAAGUUUGGACUGGGCAGAGCUCAACACAGCGUGGCAAGGUGGCUGUGGCUAGACUGCCUCUCUGGGUUCCUCGUCACUCAGCAGGGCAUCUCUGAGAGAAAUGCC [A79G A107G] | 1.21
4 | UACGUAGGUGGUUUUCCCCUGAUAGUGCUAAGGGGGCCUGAAAGUUUGGACUGGGCAGAGCUCAACACAGCGUGGCAAAGUGGCUGUGGCUAGACUGCCUCUCUGGAUUCCUCGUCACUCAGCAGGGCAUCUCUGAGAGAAGUGCC [G41A A142G] | 1.18
5 | UACGUAGGUGGUUUUCCCCUGAUAGUGCUAAGGGGGCCUGGAAGUUUGGACUGGGCAGAGCUCAACACAGCGUGGCAAAGUGGCUGUGGCUAGACUGCCUCUCUGGGUUCCUCGACACUCAGCAGGGCAUCUCUGAGAGAAAUGCC [A107G U115A] | 0.95
6 | UACGUAGGUGGUUUUCCCCUGAUAGUGCUAAGGGGGCCUGGAAGUUUGGACUGGGCAGAGCUCAACACAGCGUGGCAAAGUGGCUGUGGCUAGACUGCCUCUCCGGAUUCCUCGUCACUCAGCAGGGCAUCUCUGAGUGAAAUGCC [U104C A138U] | 1.87
7 | UACGUAGGUGGUUUUCCCCUGAUAGUGCUAAGGGGGCCUGGAAGUUUGGACUGGGCAGAGCUCAACACAGCGUGGCAAAGUGGCUGCGGCUAGACUGCCUCUCUGGAUUCCUCGUCACUCAGCAGGGCAUCUCUGAGAGAAAUGAC [U87C C145A] | 0.27
8 | UACGUAGGUGGUUUUCCCCUGAUAGUGCUAAGGGGGCCUGGAAGUUUGGACUGAGCAGAGCUCAACACAGCGUGGCAAAGUGGCUGUGGCUAGACUGCCUCUCUGGAUUCCUCGUAACUCAGCAGGGCAUCUCUGAGAGAAAUGCC [G54A C116A] | 0.47
9 | UACGUAGGUGGUUUUCCCCUGAUAGUGCUAAGGGGGCCUGGAAGUCUGGACUGGGCAGAGCUCAACACAGCGUGGCAAAGUGGCUGUGGCUAGACUGCCUCUCUGGAUUCCUCGUCACUCAGCAGGGCAUCUCUGAGAAAAAUGCC [U46C G139A] | 1.23
10 | UACGUAGGUGGUUAUCCCCUGAUAGUGCUAAGGGGGCCUGGAAGUUUGGACUGGGCAGAGCUUAACACAGCGUGGCAAAGUGGCUGUGGCUAGACUGCCUCUCUGGAUUCCUCGUCACUCAGCAGGGCAUCUCUGAGAGAAAUGCC [U14A C63U] | 0.09
11 | UACGUAGGUGGUUUUCCCCUGAUAGUGCUUAGGGGGCCUGGAAGUUUGGACUGGGCAGAGCUCAACACGGCGUGGCAAAGUGGCUGUGGCUAGACUGCCUCUCUGGAUUCCUCGUCACUCAGCAGGGCAUCUCUGAGAGAAAUGCC [A30U A69G] | 0.4
12 | UACGUAGGUGGUUUUCCCCUGAUAGUGCUAAGGGGGCCUGGAAGUUUGUACUGGGCAGAGCUCAACACAGCGUGGCAAAGUGGCUGUGGCUAGUCUGCCUCUCUGGAUUCCUCGUCACUCAGCAGGGCAUCUCUGAGAGAAAUGCC [G49U A94U] | 0.32
13 | UACGUAGGUGGUUUUCCCCUGAUAGUGCUAAGAGGGCCUGGAAGUUUGGACUGGGCAGAGCUCAACACAGCGUGGCAAAGUGGCUGUGGCUAGACUGCCUCUCUGGAUUCCUCGUCGCUCAGCAGGGCAUCUCUGAGAGAAAUGCC [G33A A117G] | 1.91
14 | UACGUAGGUGAUUUUCCCCUGAUAGUGCUAAGGGGGCCUGGAAGUUUGGACUGGGCAGAGCUCAACACAGCGUGGCAAAGUGGCUGUGGCUAGACUGCCUCUCUGGAUUCCUCGUCACUCAGCAGGGCAUCCCUGAGAGAAAUGCC [G11A U132C] | 1.03
15 | UACGUAGGUGGUUUUCCCCUGAUAGUGCUAAGGGGGCCUGGAAGUUUGGACUGGGCAGAGCUCAACACAGCGUGGCAAAGUGGCUGUGGCUAGACUGCCUCUCUGGAUUCCUCGUCGCUCAGCAGGGCAUCUCUGAGUGAAAUGCC [A117G A138U] | 1.13
16 | UACGUAGGUGGUUUUCCCCUGAUAGUGCUAAGGGGGCCUGGAAGUUUGGACUGGGCAGAGCUCAACACAGCGUGGCAAAGUGGCUGUGGCUAGACUGCCUCACUGGAUUCCUCGUCACUCAGCAGGGCAUCUCUGAGAGAAAAGCC [U102A U143A] | 1.08
17 | UACGUAGGUGGUUUUCCCCUGAUAGUGCUAAGGGGGCCUGGAAGUUUGGACUGGGCAGAGCUCAACGCAGCGUGGCAAAGUGGCUGUGGCUAGACUGCCUCUCUGGAUUCCUCGUCACUCAGCAGGGCAUCUCAGAGAGAAAUGCC [A67G U134A] | 0.39
18 | UACGUAGGGGGUUUUCCCCUGAUAGUGCUAAGGGGGCCUGGAAGUUUGGACUGGGCAGAGCUCAACACAGCGUGGCAAAGUGGCUGUGGCUAGACUGCCUCUCUGGAUUCCUCGUCUCUCAGCAGGGCAUCUCUGAGAGAAAUGCC [U9G A117U] | 1.07
19 | UACGUAGGUGGUUUUCCCCUGAUAGUGCUAAGGGGGCCUGGAAGUUUGGACUGGGCAGGGCUCAACACAGCGUGGCAAAGUGGCUGUGGCUAGACUGCCUCUCUGGAUCCCUCGUCACUCAGCAGGGCAUCUCUGAGAGAAAUGCC [A59G U109C] | 0.17
20 | UACGUAGGUUGUUUUCCCCUGAUAGUGCUAAGGGGGCCUGGAAGUUUGGUCUGGGCAGAGCUCAACACAGCGUGGCAAAGUGGCUGUGGCUAGACUGCCUCUCUGGAUUCCUCGUCACUCAGCAGGGCAUCUCUGAGAGAAAUGCC [G10U A50U] | 1.99
